# Measured values published in patent publication US20170298096A1 (CANIMGUIDE THERAPEUTICS, published 2017).
# Target: T1, His-tagged P3028 peptide (PGE73) (human)
# T1 construct: albumin-derived peptide, in solution at 0.5 ug/mL; not shown: His-tag
# T1 peptide: VFDEFKPLVEEPQNLIK
# Experiment: PEPSCAN ELISA, peptide on card
row,Binder,RAMPO Score
1,GKLDTFFVKLSLFTER [SEQ ID NO: 271 GKLDTFFVKLSLFTER],367
2,KKLDTFFVKASLFTER [SEQ ID NO: 332 KKLDTFFVKASLFTER],426
3,KKLDTFTVKLSLFTER [SEQ ID NO: 324 KKLDTFTVKLSLFTER],517
4,KKEDTFFVKLSLFTER [SEQ ID NO: 285 KKEDTFFVKLSLFTER],528
5,KKLVTFFVKLSLFTER [SEQ ID NO: 301 KKLVTFFVKLSLFTER],424
6,KKTDTFFVKLSLFTER [SEQ ID NO: 296 KKTDTFFVKLSLFTER],451
7,KKRDTFFVKLSLFTER [SEQ ID NO: 294 KKRDTFFVKLSLFTER],370
8,KKLDTFFLKLSLFTER [SEQ ID NO: 328 KKLDTFFLKLSLFTER],411
9,KKVDTFFVKLSLFTER [SEQ ID NO: 297 KKVDTFFVKLSLFTER],377
10,KKLDTPFVKLSLFTER [SEQ ID NO: 317 KKLDTPFVKLSLFTER],497
11,KKLWTFFVKLSLFTER [SEQ ID NO: 302 KKLWTFFVKLSLFTER],443
12,KKLDWFFVKLSLFTER [SEQ ID NO: 311 KKLDWFFVKLSLFTER],418
13,KKLETFFVKLSLFTER [SEQ ID NO: 299 KKLETFFVKLSLFTER],417
14,KKLDTFFPKLSLFTER (also called 32251) [SEQ ID NO: 329 KKLDTFFPKLSLFTER],456
15,KKLDTFFRKLSLFTER [SEQ ID NO: 330 KKLDTFFRKLSLFTER],365
16,KKQDTFFVKLSLFTER [SEQ ID NO: 293 KKQDTFFVKLSLFTER],473
17,KKCDTFFVKLSLFTER [SEQ ID NO: 283 KKCDTFFVKLSLFTER],432
18,KKSDTFFVKLSLFTER [SEQ ID NO: 295 KKSDTFFVKLSLFTER],393
19,KKLDTFFVKGSLFTER [SEQ ID NO: 334 KKLDTFFVKGSLFTER],495
20,IKLDTFFVKLSLFTER [SEQ ID NO: 273 IKLDTFFVKLSLFTER],483
21,KKDDTFFVKLSLFTER [SEQ ID NO: 284 KKDDTFFVKLSLFTER],492
22,KKLDTTFVKLSLFTER [SEQ ID NO: 318 KKLDTTFVKLSLFTER],481

row,Binder,RAMPO Score
1,KKLDTFFGKLSLFTER [SEQ ID NO: 327 KKLDTFFGKLSLFTER],379
2,KKLDTAFVKLSLFTER [SEQ ID NO: 313 KKLDTAFVKLSLFTER],575
3,KKLDTFFVRLSLFTER [SEQ ID NO: 331 KKLDTFFVRLSLFTER],374
4,LKLDTFFVKLSLFTER [SEQ ID NO: 274 LKLDTFFVKLSLFTER],449
5,KKLDTFQVKLSLFTER [SEQ ID NO: 322 KKLDTFQVKLSLFTER],511
6,NKLDTFFVKLSLFTER [SEQ ID NO: 276 NKLDTFFVKLSLFTER],445
7,KKADTFFVKLSLFTER [SEQ ID NO: 282 KKADTFFVKLSLFTER],427
8,KKLDSFFVKLSLFTER [SEQ ID NO: 310 KKLDSFFVKLSLFTER],458
9,VKLDTFFVKLSLFTER [SEQ ID NO: 281 VKLDTFFVKLSLFTER],442
10,KKLDPFFVKLSLFTER [SEQ ID NO: 307 KKLDPFFVKLSLFTER],427
11,KKLDTVFVKLSLFTER [SEQ ID NO: 319 KKLDTVFVKLSLFTER],547
12,KKLDTFLVKLSLFTER [SEQ ID NO: 320 KKLDTFLVKLSLFTER],517
13,KKLDMFFVKLSLFTER [SEQ ID NO: 305 KKLDMFFVKLSLFTER],475
14,KKLDTFFVKFSLFTER [SEQ ID NO: 333 KKLDTFFVKFSLFTER],403
15,KKLITFFVKLSLFTER [SEQ ID NO: 300 KKLITFFVKLSLFTER],430
16,KKLDTMFVKLSLFTER [SEQ ID NO: 315 KKLDTMFVKLSLFTER],467
17,KKLDTFMVKLSLFTER [SEQ ID NO: 321 KKLDTFMVKLSLFTER],712
18,KKLDTIFVKLSLFTER [SEQ ID NO: 314 KKLDTIFVKLSLFTER],466
19,KKLDYFFVKLSLFTER [SEQ ID NO: 312 KKLDYFFVKLSLFTER],425
20,KKLDNFFVKLSLFTER [SEQ ID NO: 306 KKLDNFFVKLSLFTER],436
21,KKGDTFFVKLSLFTER [SEQ ID NO: 287 KKGDTFFVKLSLFTER],563
22,KKLDTFFVKISLFTER [SEQ ID NO: 335 KKLDTFFVKISLFTER],415

row,Binder,RAMPO Score
1,KKIDTFFVKLSLFTER [SEQ ID NO: 289 KKIDTFFVKLSLFTER],454
2,KKLDTFVVKLSLFTER [SEQ ID NO: 325 KKLDTFVVKLSLFTER],527
3,KKLDTFFFKLSLFTER [SEQ ID NO: 326 KKLDTFFFKLSLFTER],358
4,KKKDTFFVKLSLFTER [SEQ ID NO: 290 KKKDTFFVKLSLFTER],386
5,MKLDTFFVKLSLFTER [SEQ ID NO: 275 MKLDTFFVKLSLFTER],457
6,RKLDTFFVKLSLFTER [SEQ ID NO: 279 RKLDTFFVKLSLFTER],523
7,HKLDTFFVKLSLFTER [SEQ ID NO: 272 HKLDTFFVKLSLFTER],428
8,KKHDTFFVKLSLFTER [SEQ ID NO: 288 KKHDTFFVKLSLFTER],477
9,KKLDQFFVKLSLFTER [SEQ ID NO: 308 KKLDQFFVKLSLFTER],535
10,KKLATFFVKLSLFTER [SEQ ID NO: 298 KKLATFFVKLSLFTER],494
11,KKLDRFFVKLSLFTER [SEQ ID NO: 309 KKLDRFFVKLSLFTER],430
12,KKFDTFFVKLSLFTER [SEQ ID NO: 286 KKFDTFFVKLSLFTER],393
13,KKLDTNFVKLSLFTER [SEQ ID NO: 316 KKLDTNFVKLSLFTER],446
14,KKLDCFFVKLSLFTER [SEQ ID NO: 304 KKLDCFFVKLSLFTER],449
15,TKLDTFFVKLSLFTER [SEQ ID NO: 280 TKLDTFFVKLSLFTER],493
16,KKLYTFFVKLSLFTER [SEQ ID NO: 303 KKLYTFFVKLSLFTER],422
17,PKLDTFFVKLSLFTER [SEQ ID NO: 277 PKLDTFFVKLSLFTER],387
18,KKNDTFFVKLSLFTER [SEQ ID NO: 292 KKNDTFFVKLSLFTER],374
19,QKLDTFFVKLSLFTER [SEQ ID NO: 278 QKLDTFFVKLSLFTER],455
20,KKMDTFFVKLSLFTER [SEQ ID NO: 291 KKMDTFFVKLSLFTER],460
21,KKLDTFSVKLSLFTER [SEQ ID NO: 323 KKLDTFSVKLSLFTER],700
